Data reported in the supplement of paper PMC7877785.
± gives the uncertainty stated by the source.

Assay: self-splicing fitness, log relative to wild type (ln ratio); higher = more splicing; Tetrahymena group I intron in knt gene, E. coli kanamycin selection, DiMSum; sequences stand for … in CUCUCU…GGAGGGAAAAGUUAUCAGGCAUGCACCUGGUAGCUAGUCUUUAAACCAAUAGAUUGCAUCGGUUUAAAAGGCAAGACCGUCAAAUUGCGGGAAAGGGGUCAACAGCCGUUCAGUACCAAGUCUCAGGGGAAACUUUGAGAUGGCCUUGCAAAGGGUAUGGUAAUAAGCUGACGGACAUGGUCCUAACCACGCAGCCAAGUCCUAAGUCAACAGAUCUUCUGUUGAUAUGGAUGCAGUUCACAGACUAAAUGUCGGUCGGGGAAGAUGUAUUCUUCUCAUAAGAUAUAGUCGGACCUCUCCUUAAUGGGAGCUAGCGGAUGAAGUGAUGCAACACUGGAGCCGCUGGGAACUAAUUUGUAUGCGAAAGUAUAUUGAUUAGUUUUGGAGUACUCGUGGUCG
Procedure, shortened: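 Pooled colonies went to amplicon sequencing on an Illumina HiSeq 2500 after six replicate transformations. The plates were LB agar with 100 μg/mL carbenicillin, 50 μM IPTG and 0.2% rhamnose, with or without 25 μg/mL kanamycin, incubated overnight at 37°C or 30°C. The E. coli BL21(DE3) library had all eight P1ex-region intron nucleotides randomised, the intron placed in the knt kanamycin-resistance gene on pET-22b(+). DiMSum fitness is the error-weighted combination of replicate fold changes, kanamycin against none, normalised to wild type.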

Sequence | self-splicing fitness (ln) (30 °C) | self-splicing fitness (ln) (37 °C)
AAAUAGCAAUAUUACGUACA | -1.23 ± 0.071 | -0.523 ± 0.092
AAAUAGCAAUAUUACGUGUC | -3.4 ± 0.19 | -3.29 ± 0.25
AAAUAGCAAUAUUACGUUGA | -3.3 ± 0.41 | -0.771 ± 0.16
AAAUAGCAAUAUUACGUUUA | -1.85 ± 0.15 | -1.03 ± 0.13
AACAAGCAAUAUUACGAACC | -1.27 ± 0.12 | 0.0146 ± 0.19
AACAAGCAAUAUUACGAAGG | -2.77 ± 0.19 | -1.95 ± 0.24
AACAAGCAAUAUUACGAGAG | -3.79 ± 0.22 | -2.24 ± 0.14
AACAAGCAAUAUUACGAGGG | -3 ± 0.11 | -1.35 ± 0.15
AACAAGCAAUAUUACGAUCU | -0.25 ± 0.062 | -0.072 ± 0.08
AACAAGCAAUAUUACGCACG | -1.31 ± 0.18 | -0.33 ± 0.18
AACAAGCAAUAUUACGCAGG | -2.67 ± 0.11 | -1.49 ± 0.098
AACAAGCAAUAUUACGCCAA | -2.32 ± 0.14 | -2.55 ± 0.16
AACAAGCAAUAUUACGCCAG | -2.62 ± 0.15 | -1.24 ± 0.15
AACAAGCAAUAUUACGCCCA | -0.0653 ± 0.094 | -0.00342 ± 0.11
AACAAGCAAUAUUACGCCUG | -0.373 ± 0.094 | -0.0232 ± 0.095
AACAAGCAAUAUUACGCCUU | -0.742 ± 0.11 | -0.314 ± 0.12
AACAAGCAAUAUUACGGACG | -1.3 ± 0.061 | -0.887 ± 0.086
AACAAGCAAUAUUACGGAUC | -1.6 ± 0.093 | -0.302 ± 0.11
AACAAGCAAUAUUACGGCGG | -0.998 ± 0.078 | -0.826 ± 0.1
AACAAGCAAUAUUACGGGCU | -1.82 ± 0.073 | -1.15 ± 0.099
AACAAGCAAUAUUACGGUCA | -0.52 ± 0.043 | 0.199 ± 0.062
AACAAGCAAUAUUACGGUGU | -2.51 ± 0.056 | -1.45 ± 0.068
AACAAGCAAUAUUACGGUUG | -2.83 ± 0.1 | -1.64 ± 0.084
AACAAGCAAUAUUACGUAUG | -3.33 ± 0.12 | -1.85 ± 0.1

Sequence | self-splicing fitness (ln) (30 °C) | self-splicing fitness (ln) (37 °C)
AACAAGCAAUAUUACGUCGG | -2.99 ± 0.14 | -1.99 ± 0.15
AACAAGCAAUAUUACGUGUA | -1.55 ± 0.046 | -1.01 ± 0.054
AACAAGCAAUAUUACGUUGG | -3.76 ± 0.13 | -3.31 ± 0.18
AACAAGCAAUAUUACGUUUG | -2.87 ± 0.096 | -2.46 ± 0.12
AACCAGCAAUAUUACGAAUU | -0.517 ± 0.064 | -0.314 ± 0.081
AACCAGCAAUAUUACGACAA | -1.14 ± 0.12 | -0.155 ± 0.12
AACCAGCAAUAUUACGACGG | -2.1 ± 0.089 | -0.974 ± 0.11
AACCAGCAAUAUUACGACUA | 0.0905 ± 0.084 | -0.0751 ± 0.079
AACCAGCAAUAUUACGAGAU | -1.96 ± 0.078 | -0.239 ± 0.083
AACCAGCAAUAUUACGAGGG | -3.27 ± 0.11 | -2.1 ± 0.11
AACCAGCAAUAUUACGAGUA | -1.07 ± 0.061 | -0.523 ± 0.075
AACCAGCAAUAUUACGAUAG | -2.87 ± 0.16 | -2.11 ± 0.15
AACCAGCAAUAUUACGCAUC | -1.98 ± 0.079 | -0.531 ± 0.085
AACCAGCAAUAUUACGCGGC | -3.79 ± 0.2 | -3.14 ± 0.23
AACCAGCAAUAUUACGGAAU | -2.06 ± 0.08 | -0.602 ± 0.091
AACCAGCAAUAUUACGGAGA | -1.62 ± 0.086 | -1.5 ± 0.084
AACCAGCAAUAUUACGGGCU | -2.19 ± 0.093 | -1.71 ± 0.1
AACCAGCAAUAUUACGGUUG | -2.21 ± 0.05 | -0.839 ± 0.06
AACCAGCAAUAUUACGUAAU | -1.45 ± 0.055 | -0.238 ± 0.069
AACCAGCAAUAUUACGUGAU | -1.66 ± 0.04 | -1.11 ± 0.05
AACCAGCAAUAUUACGUGGG | -3.94 ± 0.12 | -2.57 ± 0.094
AACCAGCAAUAUUACGUGUC | -3.29 ± 0.094 | -1.42 ± 0.075
AACCAGCAAUAUUACGUGUG | -1.05 ± 0.033 | -0.463 ± 0.048
